US20240294638A1 (LES LABORATOIRES SERVIER, published 2024)
Positions count from the first letter of the chain named. Names may count otherwise. Values belong to the binder of their own block, whether it stands above or below them.

Legend:
[1] = molecular target: T1, CD94 homodimer (human, UniProt Q13241 32-179, limits assumed); assay: SPR
T1 sequence (looked up): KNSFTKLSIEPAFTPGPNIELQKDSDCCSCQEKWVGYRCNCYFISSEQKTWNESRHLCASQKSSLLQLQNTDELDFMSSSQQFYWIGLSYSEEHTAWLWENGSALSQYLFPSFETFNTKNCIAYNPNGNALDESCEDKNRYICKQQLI
Method: (§1) Kinetic binding analysis of anti-NKG2A monoclonal antibodies (mAbs) was performed by Surface Plasmon Resonance (SPR) using a Continuous Flow Microspotter (CFM, Wasatch Microfluidics, Salt Lake City, US) combined with an IBIS MX96 SPR instrument (IBIS Technologies, The Netherlands). The extracellular domains (ECDs) of human his-tagged NKG2A, NKG2C and FLAG-tagged CD94 were co-expressed using an Expi293™ expression system and purified by standard Ni-NTA chromatography followed by anti-Flag M2 affinity gel (A2220, Sigma). Binding kinetics were measured by capturing mAbs on a G-a-hu-IgG Fc SensEye® for 15 minutes using the CFM. After spotting, the SensEye® was positioned in the IBIS MX96 biosensor and immobilized mAbs were fixed by SensEye FixIt kit. Kinetic analysis was performed by applying a kinetic titration series injecting increasing concentrations of antigens from 1.6 nM to 400 nM as 2-fold dilutions. After each cycle of antigen injection, the surface was regenerated by 100 mM H₃PO₄, pH 3. Antigen association and dissociation were measured for 15 minutes. The recorded binding responses were fitted to a simple 1:1 binding model with Scrubber 2.0 software for calculation of the on-rate (kₒₙ or kₐ), off-rate (Koff or kd) and affinity (KD) constants. Binding kinetic parameters were measured as an average of three independent measuring points.
The binding affinities and kinetic parameters of the anti-NKG2A mAbs binding to NKG2A/CD94 and NKG2C/CD94 heterodimers are shown in Table 7. […] None of the mAbs bound to CD94 homodimer (data not shown).

[2] = molecular target: NKG2A on primary human NK cells (human, UniProt P26715 1-233); assay: cell-based or functional assay
Sequence of NKG2A on primary human NK cells (P26715 whole entry): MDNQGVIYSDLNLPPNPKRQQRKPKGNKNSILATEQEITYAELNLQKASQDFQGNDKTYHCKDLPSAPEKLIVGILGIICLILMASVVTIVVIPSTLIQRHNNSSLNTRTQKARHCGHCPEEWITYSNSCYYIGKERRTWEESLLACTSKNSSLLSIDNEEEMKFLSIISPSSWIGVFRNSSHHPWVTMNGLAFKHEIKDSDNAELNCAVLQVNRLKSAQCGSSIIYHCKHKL

[3] = molecular target: T2, I225M (Homo sapiens); assay: flow cytometry, CHO-S cells transiently transfected with NKG2A variant and CD94, AF647 goat anti-human IgG secondary (MFI) [cont.), panel 24208]
T2 construct: co-expressed on CHO-S cells; also called human NKG2A I225M / human CD94 heterodimer on CHO-S cells
T2 sequence (P26715 whole entry I225M): as the sequence (P26715 whole entry) above, with I225M counted along it
Method: (§2) Six anti-human NKG2A antibodies were tested for binding to the different heterodimers expressed. Antibodies were tested for binding to the transfected cells in 3-fold serial dilutions from 1 μg/mL antibody, and 0 μg/ml antibody, and incubated for 30 min at 4° C. Following a washing step, the cells were incubated with a fluorescent goat anti-human IgG (H+L) secondary antibody (A-21445, Invitrogen) for 30 min at 4° C. in the dark. After a second wash, the cells were tested by high throughput flow cytometry (IQue screener, Sartorius). Data were transferred to Excel and graphs were generated using GraphPad Prism® software. A reference antibody analogue and an isotype control were included for comparison.

[4] = molecular target: T3, cynomolgus NKG2A and cynomolgus CD94 expressed on transiently transfected CHO-S cells (cynomolgus, UniProt Q68VD2 1-233; Q68VD4 1-179); assay: blocking of PE-conjugated HLA-E pentamer binding to transiently transfected CHO-S cells, flow cytometry (percentage binding) [panel B cNKG2A]
T3 construct: whole, on cells
Method: (§3) CHO-S cells were transiently transfected with constructs for expression of human NKG2A and human CD94, human NKG2C and human CD94, cynomolgus NKG2A and cynomolgus CD94, or cynomolgus NKG2C and cynomolgus CD94. Mock transfected CHO-S cells were included in the assay as negative control. A PE-conjugated HLA-E pentamer was tested for binding to the heterodimers in the presence of anti-human NKG2A antibodies in 3-fold serial dilutions from 10 μg/mL down to 14 ng/mL antibody, and 0 μg/mL antibody. The antibodies were allowed to bind for 30 min at 4° C. prior to the addition of the HLA-E pentamer in a 1:50 dilution. The fluorescence intensity of HLA-E binding to the transfected cells was measured by high throughput flow cytometry (IQue screener, Sartorius). Data were transferred to Excel and graphs were generated using GraphPad Prism® software.

[5] = molecular target: T4, recombinant human NKG2A/CD94 heterodimer (extracellular domains) (human, UniProt Q13241 32-179); assay: SPR (IBIS MX96), mAb captured on anti-human IgG Fc, ECD heterodimer injected, 1:1 fit
T4 construct: extracellular domain; ECDs co-expressed in Expi293, purified by Ni-NTA and anti-Flag; also called HuNKG2A/huCD94; NKG2A/CD94 ECDs
Method: as §1

[6] = molecular target: T5, recombinant human NKG2C/CD94 heterodimer (extracellular domains) (human, UniProt P26717 94-231; Q13241 32-179); assay: as above
T5 construct: extracellular domain; also called HuNKG2C/huCD94; NKG2C/CD94 ECDs
Method: as §1

[7] = molecular target: T6, human NKG2A and human CD94 expressed on transiently transfected CHO-S cells (human, UniProt Q13241 1-179); assay: flow cytometry, transiently transfected CHO-S cells, AF647 goat anti-human IgG secondary (MFI) [cont.), panel 24135]
T6 construct: whole, on cells; also called human NKG2A/CD94 heterodimer
Method: (§4) CHO-S cells were transiently transfected with human NKG2A and human CD94, human NKG2C and human CD94, cynomolgus NKG2A and cynomolgus CD94 or cynomolgus NKG2C and cynomolgus CD94 constructs. Mock transfected CHO-S cells were included in the assay as a negative control. Antibodies were tested for binding to the transfected cells in 3-fold dilutions from 30 μg/mL down to 0.5 ng/ml antibody, and 0 μg/mL antibody, and incubated for 30 min at 4° C. Following a washing step, the cells were incubated with a fluorescent goat anti-human IgG (H+L) secondary antibody (A-21445, Invitrogen) for 30 min at 4° C. in the dark. After a second wash, the cells were tested by high throughput flow cytometry (IQue screener, Sartorius). Data were transferred to Excel and graphs were generated using GraphPad Prism® software.

[8] = molecular target: T2, I225M; assay: flow cytometry, CHO-S cells transiently transfected with NKG2A variant and CD94, AF647 goat anti-human IgG secondary (MFI) [cont.), panel 24135]
Method: as §2

[9] = molecular target: T6, human NKG2A and human CD94 expressed on …; assay: as above
Method: as §2

[10] = molecular target: T6, human NKG2A and human CD94 expressed on …; assay: flow cytometry, transiently transfected CHO-S cells, AF647 goat anti-human IgG secondary (MFI) [cont.), panel 23765]
Method: as §4

[11] = molecular target: T3, cynomolgus NKG2A and cynomolgus CD94 …; assay: as above
Method: as §4

[12] = molecular target: T7, I168S (Homo sapiens); assay: flow cytometry, CHO-S cells transiently transfected with NKG2A variant and CD94, AF647 goat anti-human IgG secondary (MFI) [cont.), panel 23765]
T7 construct: co-expressed on CHO-S cells; also called human NKG2A I168S / human CD94 heterodimer on CHO-S cells
T7 sequence (P26715 whole entry I168S): as the sequence (P26715 whole entry) above, with I168S counted along it
Method: as §2

[13] = molecular target: T2, I225M; assay: as above
Method: as §2

[14] = molecular target: T6, human NKG2A and human CD94 expressed on …; assay: as above
Method: as §2

[15] = molecular target: T6, human NKG2A and human CD94 expressed on …; assay: blocking of PE-conjugated HLA-E pentamer binding to transiently transfected CHO-S cells, flow cytometry (percentage binding) [panel A hNKG2A]
Method: as §3

- binding result [1]: no binding
- EC50 (read off the curve) [3]: ~0.004 µg/mL
- binding result [4]: no binding (tested: 10000 ng/ml)
B1: antibody 24208 (antibody, human IgG1, kappa, L234A L235A, V domains shown)
VH: QVQLVESGGGLVKPGGSLRLSCAASGFTFSDYYMRWIRQAPGKGLEWVSHISTSGSTIYYADSVKGRFTISRDNAKNSLYLQMNSLRAEDTAVYYCARDHYYSRGVIGYWGQGTLVTVSS
VL: DIQMTQSPSSVSASVGDRVTITCRASQGISSWLAWYQQKPGKAPKLLIYAASSLQSGVPSRFSGSGSGTDFTLTISSLQPEDFATYYCQQANSFPYTFGQGTKLEIKR
notes: Fully human IgG1-LALA (L234A/L235A), kappa; also called mAb 24208; 24208 (IgG1 LALA)
- EC50 (ug/mL) of induced NK cell cytotoxicity, median (n = 19) [2]: 0.19 µg/mL

- binding result [1]: no binding
- Kd [5]: 3.7 nM
- koff [5]: 0.0013 s⁻¹
- kon [5]: 340000 M⁻¹ s⁻¹
- Kd [6]: 147 nM
- koff [6]: 0.00098 s⁻¹
- kon [6]: 6700 M⁻¹ s⁻¹
- EC50 (read off the curve) [7]: ~0.02 µg/mL
- EC50 (read off the curve) [8]: ~0.006 µg/mL
- EC50 (read off the curve) [9]: ~0.005 µg/mL
- binding result [4]: no binding (tested: 10000 ng/ml)
B3: antibody 24135 (antibody, human IgG1, kappa, L234A L235A, V domains shown)
VH: QVQLQESGPGLVKPSETLSLTCTVSGGSVSSGHYYWSWIRQPPGKGLEWIGYIYYSGSTTYNPSLKSRVSISVDTSKHQFSLKLSSVTAADTAVYYCARWAGSYQPYYYYYGMDVWGQGTTVTVSS
VL: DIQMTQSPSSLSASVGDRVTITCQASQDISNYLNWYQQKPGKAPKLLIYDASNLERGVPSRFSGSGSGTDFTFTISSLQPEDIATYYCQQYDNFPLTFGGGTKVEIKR
notes: Fully human IgG1-LALA (L234A/L235A), kappa; also called mAb 24135

Second part, the binder before the results:

B2: BMS-NKG2A.9 (antibody, human IgG1, kappa, V domains shown)
VH: EVQLVESGGGLVKPGGSLRLSCAASGFTFSSHSMNWVRQAPGKGLEWVSAISSSSSYIYYADSVKGRFTISRDNAKNSLYLQMNSLRAEDTAVYYCAREEWGLPFDYWGQGTLVTVSS
VL: B1 VL with D1A, M4L, V11L, W32A, A50D, Q55K, A91F, F94Y, Y96L, K103R
- EC50 (ug/mL) of induced NK cell cytotoxicity, median (n = 7) [2]: 1.07 µg/mL

B4: BMS-NKG2A.11 (antibody, human IgG1, kappa, V domains shown)
VH: B2 VH
VL: AIQLTQSPSSLSASVGDRVTITCRASQGIPSALAWYQQKPGKAPKLLIYDASSLKSGVPSRFSGSGSGTDFTLTISSLQPEDFATYYCQQFNSYPLTFGQGTRLEIKR
- EC50 (ug/mL) of induced NK cell cytotoxicity, median (n = 6) [2]: 0.71 µg/mL

B5: antibody 23765 (antibody, human IgG1, kappa, L234A L235A, V domains shown)
VH: B2 VH with S31C, H32C, S33R, A50S, E99D, E100G, G102N, L103D, P104V
VL: EIVLTQSPATLSLSPGERATLSCRASQSVSSYLAWYQQKPGQAPRLLIYDASNRATGIPARFSGSGSGTDFTLTISSLEPEDFAVYYCQQRSNWPLTFGGGTKVEIKR
notes: Fully human IgG1-LALA (L234A/L235A), kappa
- Kd [5]: 15 nM
- koff [5]: 0.0013 s⁻¹
- kon [5]: 88000 M⁻¹ s⁻¹
- Kd [6]: 717 nM
- koff [6]: 0.00156 s⁻¹
- kon [6]: 2180 M⁻¹ s⁻¹
- EC50 (read off the curve) [10]: ~0.04 µg/mL
- EC50 (read off the curve) [11]: ~0.02 µg/mL
- EC50 (read off the curve) [12]: ~0.01 µg/mL
- EC50 (read off the curve) [13]: ~0.01 µg/mL
- EC50 (read off the curve) [14]: ~0.01 µg/mL
- IC50 (read off the curve) [15]: ~0.6 µg/mL
